Laboratory results as given in patent US20090099029A1, “Methods and substrates for conducting assays” (Invitrogen Corporation, priority 2005, published 2009).

Tested on: kinases of Table 6 on Myelin Basic Protein (MBP)
Assay: Kinase assay using MBP substrate, ProQ Diamond stain (Table 6)
Type: biochemical
Details: kinase printed on MBP-coated slide; 20 uM ATP, 30° C.; ProQ Diamond Microarray Stain; graded Strong/Weak/Negative
Method in brief: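 Bovine dephosphorylated MBP coated on aldehyde- or epoxy-glass slides, kinases printed on top; reaction buffer pH 7.5 with 4 mM MgCl2, 20 uM ATP, 5% DMSO, ± inhibitor, at 30° C. Phosphorylation detected by ProQ Diamond stain, 30 min in dark.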

Molecule | MBP Kinase Activity
EPHA5 (protein, left off: a dimerising Fc or GST) SGSCCECGCGRASSLCAVAHPSLIWRCGYSKAKQDPEEEKMHFHNGHIKLPGVRTYIDPHTYEDPNQAVHEFAKEIEASCITIERVIGAGEFGEVCSGRLKLPGKRELPVAIKTLKVGYTEKQRRDFLGEASIMGQFDHPNIIHLEGVVTKSKPVMIVTEYMENGSLDTFLKKNDGQFTVIQLVGMLRGISAGMKYLSDMGYVHRDLAARNILINSNLVCKVSDFGLSRVLEDDPEAAYTTRGGKIPIRWTAPEAIAFRKFTSASDVWSYGIVMWEVVSYGERPYWEMTNQDVIKAVEEGYRLPSPMDCPAALYQLMLDCWQKERNSRPKFDEIVNMLDKLIRNPSSLKTLVNASCRVSNLLAEHSPLGSGAYRSVGEWLEAIKMGRYTEIFMENGYSSMDAVAQVTLEDLRRLGVTLVGHQKKIMNSLQEMKVQLVNGMVPL | Negative
MAPK13(p38delta) (protein, left off: small tags and cut ends) MSLIRKKGFYKQDVNKTAWELPKTYVSPTHVGSGAYGSVCSAIDKRSGEKVAIKKLSRPFQSEIFAKRAYRELLLLKHMQHENVIGLLDVFTPASSLRNFYDFYLVMPFMQTDLQKIMGMEFSEEKIQYLVYQMLKGLKYIHSAGVVHRDLKPGNLAVNEDCELKILDFGLARHADAEMTGYVVTRWYRAPEVILSWMHYNQTVDIWSVGCIMAEMLTGKTLFKGKDYLDQLTQILKVTGVPGTEFVQKLNDKAAKSYIQSLPQTPRKDFTQLFPRASPQAADLLEKMLELDVDKRLTAAQALTHPFFEPFRDPEEETEAQQPFDDSLEHEKLTVDEWKQHIYKEIVNFSPIARKDSRRRSGMKL | Weak
MAPKAPK5(PRAK) (protein, left off: small tags and cut ends) MSEESDMDKAIKETSILEEYSINWTQKLGAGISGPVRVCVKKSTQERFALKILLDRPKARNEVRLHMMCATHPNIVQIIEVFANSVQFPHESSPRARLLIVMEMMEGGELFHRISQHRHFTEKQASQVTKQIALALRHCHLLNIAHRDLKPENLLFKDNSLDAPVKLCDFGFAKIDQGDLMTPQFTPYYVAPQVLEAQRRHQKEKSGIIPTSPTPYTYNKSCDLWSLGVIIYVMLCGYPPFYSKHHSRTIPKDMRRKIMTGSFEFPEEEWSQISEMAKDVVRKLLKVKPEERLTIEGVLDHPWLNSTEALDNVLPSAQLMMDKAVVAGIQQAHAEQLANMRIQDLKVSLKPLHSVNNPILRKRKLLGTKPKDSVYIHDHENGAEDSNVALEKLRDVIAQCILPQAGENEDEKLNEVMQEAWKYNRECKLLRDTLQSFSWNGRGFTDKVDRLKLAEIVKQVIEEQTTSHESQ | Strong
MAPK8(JNK1) (protein, left off: small tags and cut ends) MSRSKRDNNFYSVEIGDSTFTVLKRYQNLKPIGSGAQGIVCAAYDAILERNVAIKKLSRPFQNQTHAKRAYRELVLMKCVNHKNIIGLLNVFTPQKSLEEFQDVYIVMELMDANLCQVIQMELDHERMSYLLYQMLCGIKHLHSAGIIHRDLKPSNIVVKSDCTLKILDFGLARTAGTSFMMTPYVVTRYYRAPEVILGMGYKENVDLWSVGCIMGEMVCHKILFPGRDYIDQWNKVIEQLGTPCPEFMKKLQPTVRTYVENRPKYAGYSFEKLFPDVLFPADSEHNKLKASQARDLLSKMLVIDASKRISVDEALQHPYINVWYDPSEAEAPPPKIPDKQLDEREHTIEEWKELIYKEVMDLEERTKNGVIRGQPSPLAQVQQ | Negative
MAP4K4(HGK) (protein, left off: a dimerising Fc or GST) MANDSPAKSLVDIDLSSLRDPAGIFELVEVVGNGTYGQVYKGRHVKTGQLAAIKVMDVTEDEEEEIKLEINMLKKYSHHRNIATYYGAFIKKSPPGHDDQLWLVMEFCGAGSITDLVKNTKGNTLKEDWIAYISREILRGLAHLHIHHVIHRDIKGQNVLLTENAEVKLVDFGVSAQLDRTVGRRNTFIGTPYWMAPEVIACDENPDATYDYRSDLWSCGITAIEMAEGAPPLCDMHPMRALFLIPRNPPPRLKSKKWSKKFFSFIEGCLVKNYMQRPSTEQLLKHPFIRDQPNERQVRIQLKDHIDRTRKKRGEKDETEYEYSGSEE | Strong
MAPK11(p38B) (protein, left off: small tags and cut ends) MSGPRAGFYRQELNKTVWEVPQRLQGLRPVGSGAYGSVCSAYDARLRQKVAVKKLSRPFQSLIHARRTYRELRLLKHLKHENVIGLLDVFTPATSIEDFSEVYLVTTLMGADLNNIVKCQALSDEHVQFLVYQLLRGLKYIHSAGIIHRDLKPSNVAVNEDCELRILDFGLARQADEEMTGYVATRWYRAPEIMLNWMHYNQTVDIWSVGCIMAELLQGKALFPGSDYIDQLKRIMEVVGTPSPEVLAKISSEHARTYIQSLPPMPQKDLSSIFRGANPLAIDLLGRMLVLDSDQRVSAAEALAHAYFSQYHDPEDEPEAEPYDESVEAKERTLEEWKELTYQEVLSFKPPEPPKPPGSLEIEQ | Strong
MAPK14(p38alpha) (protein, left off: a dimerising Fc or GST) MSQERPTFYRQELNKTIWEVPERYQNLSPVGSGAYGSVCAAFDTKTGLRVAVKKLSRPFQSIIHAKRTYRELRLLKHMKHENVIGLLDVFTPARSLEEFNDVYLVTHLMGADLNNIVKCQKLTDDHVQFLIYQILRGLKYIHSADIIHRDLKPSNLAVNEDCELKILDFGLARHTDDEMTGYVATRWYRAPEIMLNWMHYNQTVDIWSVGCIMAELLTGRTLFPGTDHINQLQQIMRLTGTPPAYLINRMPSHEARNYIQSLTQMPKMNFANVFIGANPLAVDLLEKMLVLDSDKRITAAQALAHAYFAQYHDPDDEPVADPYDQSFESRDLLIDEWKSLTYDEVISFVPPPLDQEEMES | Strong
MAPKAPK3 (protein, left off: small tags and cut ends) MDGETAEEQGGPVPPPVAPGGPGLGGAPGGRREPKKYAVTDDYQLSKQVLGLGVNGKVLECFHRRTGQKCALKLLYDSPKARQEVDHHWQASGGPHIVCILDVYENMHHGKRCLLIIMECMEGGELFSRIQERGDQAFTEREAAEIMRDIGTAIQFLHSHNIAHRDVKPENLLYTSKEKDAVLKLTDFGFAKETTQNALQTPCYTPYYVAPEVLGPEKYDKSCDMWSLGVIMYILLCGFPPFYSNTGQAISPGMKRRIRLGQYGFPNPEWSEVSEDAKQLIRLLLKTDPTERLTITQFMNHPWINQSMVVPQTPLHTARVLQEDKDHWDEVKEEMTSALATMRVDYDQVKIKDLKTSNNRLLNKRRKKQAGSSSASQGCNNQ | Strong
MAPK12(p38gamma) (protein, left off: small tags and cut ends) MSSPPPARSGFYRQEVTKTAWEVRAVYRDLQPVGSGAYGAVCSAVDGRTGAKVAIKKLYRPFQSELFAKRAYRELRLLKHMRHENVIGLLDVFTPDETLDDFTDFYLVMPFMGTDLGKLMKHEKLGEDRIQFLVYQMLKGLRYIHAAGIIHRDLKPGNLAVNEDCELKILDFGLARQADSEMTGYVVTRWYRAPEVILNWMRYTQTVDIWSVGCIMAEMITGKTLFKGSDHLDQLKEIMKVTGTPPAEFVQRLQSDEAKNYMKGLPELEKKDFASILTNASPLAVNLLEKMLVLDAEQRVTAGEALAHPYFESLHDTEDEPQVQKYDDSFDDVDRTLDEWKRVTYKEVLSFKPPRQLGARVSKETPL | Strong
